Experimental data published in patent US20260070978A1 (LENTIGEN TECHNOLOGY, published 2026).

T1: recombinant human CD19 (human, UniProt P15391 20-291, limits assumed, fluorescent label, kind and site not stated)
T1 construct: soluble labeled antigen titrated on yeast; sorting steps used CD19-Fc, so the labeled antigen may be the Fc fusion; also called labeled CD19; fluorescently tagged antigen
T1 sequence (looked up): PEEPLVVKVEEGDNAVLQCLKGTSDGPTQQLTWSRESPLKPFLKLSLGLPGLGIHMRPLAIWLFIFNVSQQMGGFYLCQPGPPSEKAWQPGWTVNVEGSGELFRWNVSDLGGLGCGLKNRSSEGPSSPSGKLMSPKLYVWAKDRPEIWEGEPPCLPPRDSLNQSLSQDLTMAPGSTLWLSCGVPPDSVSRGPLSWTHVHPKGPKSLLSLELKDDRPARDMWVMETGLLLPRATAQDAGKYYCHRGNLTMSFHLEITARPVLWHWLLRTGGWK

T2: recombinant human CD22 (human, UniProt P20273 20-687, limits assumed, fluorescent label, kind and site not stated)
T2 construct: soluble labeled antigen titrated on yeast; sorting steps used CD22-Fc, so the labeled antigen may be the Fc fusion; also called labeled CD22; fluorescently tagged antigen
T2 sequence (looked up): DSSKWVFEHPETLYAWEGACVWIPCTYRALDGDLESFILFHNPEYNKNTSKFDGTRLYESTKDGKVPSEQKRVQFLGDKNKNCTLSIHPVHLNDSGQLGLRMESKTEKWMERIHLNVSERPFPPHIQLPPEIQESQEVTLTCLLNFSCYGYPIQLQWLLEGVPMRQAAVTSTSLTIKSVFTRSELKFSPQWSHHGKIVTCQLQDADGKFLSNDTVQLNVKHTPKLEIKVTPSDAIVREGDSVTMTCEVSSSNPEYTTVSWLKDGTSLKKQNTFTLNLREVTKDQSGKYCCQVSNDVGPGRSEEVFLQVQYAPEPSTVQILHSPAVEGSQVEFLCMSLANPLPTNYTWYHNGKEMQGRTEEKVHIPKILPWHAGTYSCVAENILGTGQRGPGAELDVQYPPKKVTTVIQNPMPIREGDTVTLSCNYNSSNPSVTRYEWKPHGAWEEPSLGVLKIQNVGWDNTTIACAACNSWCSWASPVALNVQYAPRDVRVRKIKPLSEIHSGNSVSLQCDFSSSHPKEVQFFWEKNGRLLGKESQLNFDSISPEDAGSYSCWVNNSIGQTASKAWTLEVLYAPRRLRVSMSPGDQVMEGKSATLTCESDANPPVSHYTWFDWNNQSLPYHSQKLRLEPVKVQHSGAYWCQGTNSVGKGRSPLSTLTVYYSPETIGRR


What was measured:
recombinant human CD19 = target: T1, recombinant human CD19; experiment: flow cytometry of yeast-displayed scFv with decreasing amounts of labeled CD19
Method: To increase the affinity of m19217, a yeast-display m19217 mutant scFv library was created by using error-prone PCR to create random point mutations in scFv gene sequences. After electroporation, the resulting mutant library was then grown overnight at 30° C. for 16 hours in SDCAA medium and then switched into SGCAA medium at 30° C. for another 16 hours. The mutant library was then sorted through MACS (immunomagentic column, Miltenyi Biotec) with CD19-Fc as the capture antigen to downsize the library and to increase the population of mutants that could bind to CD19-Fc. The strongest binders were then selected by double staining the pools with Anti-c-Myc-Alexa 488 and CD19-Fc/Anti-Hu-Fc and selecting for the binders that had the highest binding affinities as well as c-Myc expression levels. This process was then repeated two more times, until flow cytometry of yeast particles with fluorescently tagged antigen yielded average binding affinities of the mutant pools that were increased over the starting construct. Binding affinities were estimated by flow cytometry of yeast pools using decreasing amounts of labeled CD19.

recombinant human CD22 = target: T2, recombinant human CD22; experiment: flow cytometry of yeast-displayed scFv with decreasing amounts of labeled CD22

| Binder | EC50 (recombinant human CD19) [µg/mL] | EC50 (recombinant human CD22) [µg/mL] |
| --- | --- | --- |
| human anti-CD19 ScFv binder M19217 (scFv) EVQLVQSGAEVKKPGASVKVSCKASGYTFTSYYMHWVRQAPGQGLEWMGIINPSGGSTSYAQKFQGRVTMTRDTSTSTVYMELSSLRSEDTAVYYCARSDRGITATDAFDIWGQGTMVTVSSGGGGSGGGGSGGGGSQSVLTQPPSVSVAPGQTAKITCGGSDIGNKNVHWYQQKPGQAPVLVVYDDYDRPSGIPERFSGSNSGDAATLTISTVEVGDEADYFCQVWDSSGDPYWVFGGGTQLTVLG | 0.5 | – |
| human anti-CD19 ScFv binder M19217-2 (scFv) EVQLVQSGAEVKKPGASVKVSCKASGYTFTSYYMHWVRQAPGQGFEWMGLINPSGSSTSYAQKFQGRVTMTRDTSTSTVYMELSNLRSEDTAVYYCARSDRGITATDAFDIWGQGTMVTVSSGGGGSGGGGSGGGGSQSVLTQPPSVPVAPGQTAKIICGGSDIGNKNVHWYQQKPGQAPVLVVYDDYDRPSGIPERFSGSNSGDAATLTISTVEVGDEADYFCQVWDGSGDPYWVFGGGTQLTVLG | < 0.01 | – |
| human anti-CD19 ScFv binder M19217-23 (scFv) EVQLVQSGAEVKKPGASVKVSCKASGYTFTGYYMHWVRQAPGQGLEWIGLINPSGGSTSYEQKFQGRVAMTRDTSTSTVYMELSSLRSEDTAVYYCARSDRGITATDAFDIWGQGTMVTVSSGGGGSGGGGSGGGGSQSVLTQPPSVSVAPGQTAKITCGGSDIGDKNVHWYQQKPGQAPVLVVYDDYDRPSGIPERFSGSNSGDAATLTISTVEVGDEADYFCQVWDGIGDPYWVFGGGTQLTVLG | < 0.01 | – |
| human anti-CD19 ScFv binder M19217-7 (scFv) EVQLVQSGAEVNKPGASVKVSCKASGYTFTSYYMHWVRQAPGQGLEWMGMINPSGGSTSYAQKFQGRVTMTRDTSTSTVYMELSSLRSEDTAVYYCARSDRGITSTDAFDIWGQGTMVTVSSGGGGSGGGGSGGGGSQSVLTQPPSVSLAPGQTAKITCGGSDIGNKNVHWYQQKPGQAPVLVVYDDYNRPSGIPERFSGSNSGDSATLTISTVEVGDEADYFCQVWDGSGDPYWVFGGGTQLTVLG | < 0.01 | – |
| human anti-CD19 ScFv binder M19217-29 (scFv) EVQLVQSGAEVKKPGASVKVSCKASGYTFTSYYMHWVRQAPGQGLEWMGMINPSGGSTSYAQKFQGRVTMTRDTSTSTVYMELSSLRSEDTAVYYCARSDRGITATDAFDIWGQGTMVTVSSGGGGSGGGGSGGGGSQSVLTQPPSVSVAPGQTAKITCGGSDIGNKNAHWYQQKPGQAPVLVVYDDYDRPSGISERFSGSNSGDAATLTISTVEVGDEADYFCQVWDGSGDPFWVFGGGTQLTVLG | < 0.01 | – |
| human anti-CD19 ScFv binder M19217-1 (scFv, also called LTG2065) scFv: EVQLVQSGAEVKKPGASVKVSCKASGYTFTSYYMHWVRQAPGQGLEWMGLINPSGGSTSYAQKFQGRVTMTRDTSTSTVYMELSSLRSEDTAVYYCARSDRGITATDAFDIWGQGTMVTVSSGGGGSGGGGSGGGGSQSVLTQPPSVSVAPGRMAKITCGGSDIGNKNVHWYQQKPGQAPVLVVYDDYDRPSGIPERFSGSNSGDAATLTISTVEVGDEADYFCQVWDGSGDPYWMFGGGTQLTVL | < 0.01 | – |

The next lines start with the values.

| EC50 (recombinant human CD19) [µg/mL] | EC50 (recombinant human CD22) [µg/mL] | Binder |
| --- | --- | --- |
| < 0.01 | – | human anti-CD19 ScFv binder M19217-38 (scFv) EVQLVQSGAEVKRPGASVKVSCKASGYTFTSYYMHWVRQAPGRGLEWMGLINPSGGSTSYAQEFQGRVTMTRDMSTSTVYMELSSLRSEDTAVYYCARSDRGISATDAFDIWGQGTMVTVSSGGGGSGGGGSGGGGSQSVLTQPPSVSVAPGQMAKITCGGSDIGNKNVHWYQQKPGQAPVLVVYDDYNRPSGIPERFSGSNSGDAATLTISTVEVGDEADYFCQVWDGSGDPYWVFGGGTQLTDLG |
| < 0.01 | – | human anti-CD19 ScFv binder M19217-40 (scFv) EVQLVQSGAEVKRPGASVKVSCKASGYTFTSYYMHWVRQAPGQGLVWMGLINPSGGSTSYAQKFQGRVTMTRDTSTSTVYMELSSLRSEDTAVYYCARSDRGITATDAFDIWGQGTMVTVSSGGGGSGGGGSGGGGSQSVLTQPPSVSVAPGQTAKTTCGGSDIGNKNVHWYQQKPGQAPVLVVYDDYDRPSGIPERFSGSNSGDAATLTISTVEVGDEADYVCQVWDGSGDPYWVFGGGTQLTVLG |
| – | < 0.01 | human anti-CD22 ScFv binder 16P17 (scFv, V domains shown) VH: QVQLQQSGPGLVKHSQTLSLTCAISGDSVSSNSAAWNWIRQSPSRGLEWLGRTYYRSKWYNDYAVSVKSRITINPDTSKNQFSLQLNSVTPEDTAVYYCAQEVEPHDAFDIWGQGTMVTVSS VL: DIQMTQSPSSVYASVGDKVTITCRASQDVSGWLAWYQQKPGLAPQLLISGASTLQGEVPSRFSGSGSGTDFTLTISSLQPEDFATYYCQQAKYFPYTFGQGTKLEIK |
